Consider 69 sequences from the domain aggregation screens of Martell et al. (2025).

Some results are limits rather than exact numbers.

The series can be described thus: soluble fraction after stress (log2 fold change); higher = more stays soluble; pooled small domains, quantitative proteomics. To be noted: stress: pH 4. The method, boiled down: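 Pooled custom libraries of small protein domains were subjected to pH 4 and measured by high-throughput quantitative proteomics. The log2 fold change in soluble amount per domain is reported, higher values meaning more remained soluble. This is used as a measure of aggregation propensity.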
Turning to “HMTGSAETRGITLTDEQVTVWAKDGSWANYVYRATDGNWYDGSGRLYYENGGGEWTQAATGEQGS”, the “soluble fraction (log2)” value was -1.68.

Take “HMTGSALDATIEKLLDLGSKAGSVTEDEIQIVLKNVDVTDAQLSSIYQFLRDRGVEIVSATEDDD”: the “soluble fraction (log2)” value was -1.38.

With “HMTGVPYLVRVKITDLHIRSGPGTNYASKGFIAPGAYTIVEESTGQGAALWGKLKSGKGWIALGYTEK”, the “soluble fraction (log2)” value came to 0.0451.

Turning to “HMTHAISKTYAVTGEQLKNGFTLTHTFANGSTRRVDVYPGSRSGKVIAVRNTTDDTTEWIRIVEG”, the “soluble fraction (log2)” value was -0.0152.

On to “HMTHSEYVGRHGIAATSLRPAGAATIDGSRVDVVTSGEYIEKGTPIEVMTVNGSTVRVKAVPQIP”, for which the “soluble fraction (log2)” value amounted to 0.08.

Regarding “HMTIDANAIEKMVLDLIGEHPNEWGRYRDGDKKVQGFFVGQIMKATSGQADGKIVNQILSQHAEA”, the “soluble fraction (log2)” value turned out to be 0.126.

In the case of “HMTIELAEGQHFLQISKSGAPMGNVVRDLIIQTLKITNGNQIKAAKILGISRAKLRYRIEQLGINITGKNI”, the “soluble fraction (log2)” value is -0.0446.

“HMTIERVKIKETPTGWLRVRETPDNNGSEIGRANVGEIYELLGSKGEWYHIVYKGKQGFISTKYAEKVL”: the “soluble fraction (log2)” value was -0.124.

For the sequence “HMTIGEALLNLRKQLGLNQTEMAANVVSTSFYSKVERNIHDIGTKDLLQILNKHQINATYFFENLN”, the “soluble fraction (log2)” value is -0.446.

Consider “HMTIHVMEIKSLLPIKILDESQHLVQSFSSKNPTSYNYRLIFSDKSKLENIKKTINENKDVESIEIRYA”, for which the “soluble fraction (log2)” value is -0.436.

With “HMTILTSSQRKALISKMIRQGGVESQSHLVKLLAREGVKVTQATASRDLEDLGATRVRDANGEFQYVIP”, the “soluble fraction (log2)” value came to 0.0156.

As to “HMTINQIDPASGRKVGYWIITGEMKPKEGFSPDNKIEEGIYVNSRKSGKWIKYWPNGNVRSEIIYKNGR”, the “soluble fraction (log2)” value was -0.0109.

As for “HMTITPEVIVNHFKNLDLFFTKNGNYYEFKKKGTENILFKYGIYKQKPNIFVKIQRYPISSLSDLERIPI”, the “soluble fraction (log2)” value was -0.159.

For the sequence “HMTIYLSENIKRLRLEKELTQETLSEFLGVTSQSVSNWERGESYPDITMLPEIADFFKVSVDELLGVNRAE”, the “soluble fraction (log2)” value is -1.66.

Regarding “HMTIYPFNPNYLKDYQAYRVGLSLKEIDALLDFRSSGQWINSAEDFQRITGVSDSVLEQLIPYFKFS”, the “soluble fraction (log2)” value was -1.73.

Consider “HMTKASYKITTPSGVNVREGAGKRYAVRKAYPKGKTVTVTQTKEVNGNLWGKTSDGWFAIKYQGAVYASA”, for which the “soluble fraction (log2)” value was determined as 0.2.

In the case of “HMTKDEFLTTLRTLIQDMPPEDRRDVMNYYTEYFEDAGPEREQEVLRQLGSPEQVAREVLGG”, the “soluble fraction (log2)” value was -0.459.

For “HMTKDVIEIVDGNKFVFHKTIATDSVSSVINKYHISEADFRTWNELTGDMKVGEEYIVQLSLH”, the “soluble fraction (log2)” value was -0.576.

Turning to “HMTKKFQIQTLDKLNVRKVADWNASAVTTVKKGQILDVVAEVSPKNGSTKMYKLESGLYITASEKYVKKQG”, the “soluble fraction (log2)” value was at least 0.43.

For “HMTKLPLLVELSRIIPTDTWVKKIKFSLGSVEFVGISKSASRLLPIVENSSYFHDTKFIGTIVT”, the “soluble fraction (log2)” value is -0.274.

On to “HMTKNIIVTTSVKTSDELVEVAKNHALNLELDFNYRNKKTIKELLSSFDGLVVIYKNKISYFEDNSELF”, for which the “soluble fraction (log2)” value is 0.22.

Turning to “HMTKQDYLTALQQELNKNAVADAEDIVSEYEQHFQFKLADGFTEEEIAAKLGAPAQIALQFAG”, the “soluble fraction (log2)” value was -1.64.

In the case of “HMTKQRSIILDLLKANQDRHLTAEEMLELLNQNHTPVSKATLYRYLDMLVSQNAVRKFIIDDQPSAGYQYL”, the “soluble fraction (log2)” value was -0.0717.

As to “HMTKSTSMDLGGFMIVEGSETVRLGGQILQKDVDYTIDYFSGKINFISEEALNPGAEISVSYEENQ”, the “soluble fraction (log2)” value was -1.44.

As for “HMTKTEFLEALRRALNGNMAAASVEDNLKFYENYFYSEEAKGRSEAAVLSELGDPRILARTLIDAAER”, the “soluble fraction (log2)” value was -0.816.

For “HMTKTEFLNLLEQRLFVLNDNERADLLSEYKQHIEMKIQSGLSEEEAIADFGDPEELIKELLEAY”, the “soluble fraction (log2)” value was -1.13.

“HMTKTFDSPEDADNDVLAKTLFQIFGVQSVYLKENFVTITKSNSVGWHTLMEKTGHTLEEHLKF”: the “soluble fraction (log2)” value was 0.0576.

Take “HMTKTKFLSKDMILSAMSRTKSNRAAARYLSVSFVHYKKYAREYKDETSGVSLWEKHKNQSGTGIPK”: the “soluble fraction (log2)” value was 0.0318.

Take “HMTKTSQEDEDIMRHLDELHTRWPFLGQRKLIEELKDQGIQIGRKRLRRLMKVMGIEAIAPK”: the “soluble fraction (log2)” value was found to be 0.173.

As to “HMTKVMVPNVVGMSRGEAEEALRGVKLQVDLKREVSDDPEVKPEEVLRQTPDAQTSVPQGSVVTLYVADKP”, the “soluble fraction (log2)” value was -0.407.

As to “HMTKYEKKIFEIVNASRDHLTAEQVLAALREEYPAVSQATVYNNLKKLTSDGLLRKLTLADSPDRYD”, the “soluble fraction (log2)” value stood at 0.211.

On to “HMTLAAATESREYLADLARRLDAADHGDKTRIKAEAAGLLGWSMATLHARLARDVGWTSGRK”, for which the “soluble fraction (log2)” value is -0.166.

As for “HMTLDEFTDLMNLFKTGHIEQKPVILYGYNYWTSLKSWFEFNNMKFPEMYIDGIINTVDEFKILYNKIF”, the “soluble fraction (log2)” value is -0.77.

On to “HMTLGPKQMGEAIIKNLKEKTGKSLEEWSQRILIHELTDKKEIIDFLKNDNGLGHFQALKIFEHLNGK”, for which the “soluble fraction (log2)” value is -0.652.

For the sequence “HMTLGQHIQALRKEAGYSQEALGEALGVTRQSISKWESDQAIPEVDKLVTLSRLFQVPVGVLLQVEQP”, the “soluble fraction (log2)” value is -0.166.

Consider “HMTLGSVRTVRQVLDDGRLLVADSGGNVTLVRRAGTLAKENVNTGDRVSVDSSVRFALTLIPV”, for which the “soluble fraction (log2)” value was -0.00374.

Consider “HMTLPEKSKRLFSQDDFWDQIFYRIGEGQSLREVSKYYKIPYTTIHDRIHSDEGIKLKYLEALTS”, for which the “soluble fraction (log2)” value was -0.592.

Regarding “HMTLPQEPTVLPRPLRVGDTVHIRTLDKDAEVLALPDARGMVAVRAGIINTKVKLTDLTLVEEK”, the “soluble fraction (log2)” value was at least 0.43.

“HMTLRDRDQALEELWGQLADVPMDSETERLLEPFMGWGVGVSRDEIWHWFDRRHSKGIGHLLYS”: the “soluble fraction (log2)” value was -1.67.

For the sequence “HMTLSENEKIIVDTIMKYQPLHIDVLNQQVKVDFYTLLGLLTKLEMEGIVLKNPGNIYKINTL”, the “soluble fraction (log2)” value is -0.865.

For “HMTLTPEQQAARRSEIVDIALRLIAENGFQKTSMREIADLAKMGKSSLYDFFKTKDEIAVYAMEKK”, the “soluble fraction (log2)” value was -0.856.

Consider “HMTMEFGEFLAKLRKERGYYQKEVAAYLNVTVATISNYEKNVHAPDLDTLVKLADFYDVSTDYLLQRT”, for which the “soluble fraction (log2)” value was -1.46.

In the case of “HMTMGAAEAQALKDEALELYRTGGTQEDVVRAIEMYEQAAEAGNAQAASDLAYLKANGVYETAMNN”, the “soluble fraction (log2)” value is -0.75.

For the sequence “HMTMQQGTISRLNHSRGFGFLTTPDGEDLFFHRTNVHETPFARLQVGDRVTYDVQVTPRGTRADKVQLNM”, the “soluble fraction (log2)” value is -0.222.

For “HMTMRFVVADGQNFGSIAQSKALEAVKKGNTEFNYKDVDYTVDIQSDDFYVVYQGRDIMGYASR”, the “soluble fraction (log2)” value was -1.89.

Regarding “HMTMTIEITVNGKTKTLVAELSLADLLRDLGMTKGRIAVELNGHIVPRSQFSSKTISNLDSIEIVQ”, the “soluble fraction (log2)” value turned out to be 0.138.

Take “HMTNADRYIGQEATVTEKISNELSTGAVRIGGLVWTARTVDNSEAEEGERVTVEAIEGAKLLVKRR”: the “soluble fraction (log2)” value is -0.0323.

With “HMTNEPRLTNMGFNKMLIENYKMILEYQDFFIRISTQIGIININGFDLKLGEMTADEVLVTGKIESIDL”, the “soluble fraction (log2)” value was at least 0.43.

Take “HMTNIDRLIGQTAIVKETINNKKEQGVVRINGMDWTARTEEIDEVILKGKPVEILDIQGIKLIVRKK”: the “soluble fraction (log2)” value was determined as 0.161.

In the case of “HMTNIELYQRLLNLGFTPAQAKILLVQYDETRLTDNLNYVDFKKQQGNIENLPAYTTTIIKKDVRL”, the “soluble fraction (log2)” value came out at 0.0954.

For the sequence “HMTNIQFINLKMTDNHPWIHQYIKDIILPPQTRIVMIKRNDIKTIPKGERRIEKDDELILSAFESQT”, the “soluble fraction (log2)” value is -1.27.

As to “HMTNKKIILEIFQNSDKPLIVEEISKKMFEKTGKKMILSTIYRNLKNMEDVGILKKIYNEDGSYMYIF”, the “soluble fraction (log2)” value is -1.07.

For the sequence “HMTNKQEYAYQWLKSSIIENKIKPSTLLVERHLSEMLHISRTPVRTALMRLADEGFVVISPGRGMVVA”, the “soluble fraction (log2)” value was -0.0492.

Consider “HMTNQEFNAAFKPFLDYFPTTEMTKEKINIYYLALSDLSKEQLGSAFISMVKNRVYKNFPQVAEIRQYATN”, for which the “soluble fraction (log2)” value is -0.456.

Regarding “HMTNTDYPGKVVPVDPDGKTLKPDGDASYNDKPGTKVKTPTVPGYTAEVPNVEVPVGGGDIKVTYHKKPV”, the “soluble fraction (log2)” value was found to be 0.0461.

Take “HMTNVYSLIGKRGIVVEDIDWQKGTGQVKIDGELWSVKTNEQINISKGTEVEVENIEGVKVFVKPI”: the “soluble fraction (log2)” value was -0.458.

For the sequence “HMTNYGTVRPGARGQAVTALQQALIRHGYKLTADGIYGRATRQAVRAFQQKHKLKVDGIVGSKTWALLLAD”, the “soluble fraction (log2)” value is -0.0192.

On to “HMTPDGNATVWSANGYGVRLRTGPGKGYAIIGVYSVGTTVKVLERGPAGGWDHIQVGSRVGYMMNEFLHYY”, for which the “soluble fraction (log2)” value amounted to 0.422.

In the case of “HMTPDLSEFKERLRQILPGEPIEVRTANDGIVLSGTVTSIAALDRALDLAERYAPDKVSNLLSVG”, the “soluble fraction (log2)” value amounted to 0.365.

Take “HMTPELTAEEREVLSLLGDEPRTLAELIAASGRDYAALSVLLMGLELSQAVRQLPGNRYERF”: the “soluble fraction (log2)” value is -1.36.

As for “HMTPGPFLVYITGAVERPNVLVTLDYGSRVIDALNAAGGSRIDANLDLVNLAQRLVDGDQIHVPTLR”, the “soluble fraction (log2)” value is -1.1.

As to “HMTPGPYETLKPAPLGSYIEPKIGFATAIEIARKEAVQLGIKTEAGGIWYGGDFPFYNVSFFDPDD”, the “soluble fraction (log2)” value is -0.985.

Turning to “HMTPKVTVPDVTGQTFSSAKQILESLGFTVKQQGSTDETDQVIDQNPTSGEADKGATITLTTKSS”, the “soluble fraction (log2)” value was -0.139.

Take “HMTPPAQQPHEGLPTDETATDAKTLVQKSRWWLEEEQRQREAGNTAYAERIRLALIQLLYRAERA”: the “soluble fraction (log2)” value stood at 0.0525.

“HMTPQNAAAVLRYLSSGAIKGVGPSTAQRIVEKFGAESLDIIQNKPEELATIRGISLSKALAVSEEYNKQY”: the “soluble fraction (log2)” value turned out to be 0.0689.

“HMTPTFSNQDLIKAGLAGSPVAKRRRERLGELLGIGYGNAKQLLKRLDLFAIDRPTFERAVAQLDQEGK”: the “soluble fraction (log2)” value was determined as 0.414.

As to “HMTPVSQIATKDIEEKIDSLSDEYKDPFILHFKGFKYKEIADQLDIPIGTVKSRIFIARKKLIDLLPDY”, the “soluble fraction (log2)” value was -0.391.

Consider “HMTQEHDESVNLGKRLLDQALSRFGTSYRQLKKSEIKRILQSSGASTFKYILHQIGLGNRVPLAIANLIV”, for which the “soluble fraction (log2)” value was -0.0152.

“HMTQEMPAEVKKKADAFNNAMDEENYTEAKAILAELEQNTAPSYPLLLQMQTRYAFETASWE”: the “soluble fraction (log2)” value is -0.974.
